Each block holds one binder with its values, some of them ahead of it.
What was measured:
CD20 [1] = molecular target: T1, CD20 (human, UniProt P11836 1-297); assay: Scatchard analysis, cold antibody against 125I-2H7.v16 on WIL2-S cells
T1 construct: whole, on cells; not clear that this entry is the whole human CD20, so it is not used; also called human CD20; CD20 antigen
T1 sequence (looked up): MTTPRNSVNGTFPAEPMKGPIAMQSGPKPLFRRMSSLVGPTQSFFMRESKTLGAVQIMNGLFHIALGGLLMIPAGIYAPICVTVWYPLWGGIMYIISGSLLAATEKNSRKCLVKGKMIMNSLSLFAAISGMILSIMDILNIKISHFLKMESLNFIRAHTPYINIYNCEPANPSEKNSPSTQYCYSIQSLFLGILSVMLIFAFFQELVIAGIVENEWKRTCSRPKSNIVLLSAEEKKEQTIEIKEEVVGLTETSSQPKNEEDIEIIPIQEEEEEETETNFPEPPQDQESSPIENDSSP
Protocol: All dilutions were performed in binding assay buffer (DMEM media containing 1% bovine serum albumin, 25 mM HEPES pH 7.2, and 0.01% sodium azide). […] WIL2-S cells (60,000 cells in 0.025 mL) were then added. The plate was sealed and incubated at room temperature for 24 h, then centrifuged for 15 min at 3,500 RPM. The supernatant was then aspirated and the cell pellet was washed and centrifuged. The supernatant was again aspirated, and the pellets were dissolved in 1N NaOH and transferred to tubes for gamma counting.

CD20 [2] = molecular target: T1, CD20; assay: cell-based ELISA, WIL2-S cells
Protocol: To measure relative binding affinities to the CD20 antigen, a cell-based ELISA assay was developed. […] The cells were washed with PBS containing 1% FBS (assay buffer) and seeded at 250-300,000 cellwell in 96-well round bottom plates (Nunc, Roskilde, Denmark). […] The plates were buried in ice and incubated for 45 min. To remove the unbound antibody, 0.1 mL assay buffer were added to the wells. Plates were centrifuged and supernatants were removed. Cells were washed two more times with 0.2 mL assay buffer. Antibody bound to the plates was detected by adding peroxidase conjugated goat anti-human Fc antibody (Jackson ImmunoResearch, West Grove, Pa.) to the plates. After a 45 min incubation, cells were washed as described before. TMB substrate (3,3′,5,5′-tetramethyl benzidine; Kirkegaard & Perry Laboratories, Gaithersburg, Md.) was added to the plates. The reaction was stopped by adding 1 M phosphoric acid. Titration curves were fit with a four-parameter nonlinear regression curve-fitting program (KaleidaGraph, Synergy software, Reading, Pa.). The absorbance at the midpoint of the titration curve (mid-OD) and its corresponding concentration of the standard were determined. Then the concentration of each variant at this mid-OD was determined, and the concentration of the standard was divided by that of each variant.

Kd (CD20 [1]): 1.22 nM
B1: 2H7.v73 (antibody, IgG1)
heavy: not shown
light: DIQMTQSPSSLSASVGDRVTITCRASSSVSYLHWYQQKPGKAPKPLIYAPSNLASGVPSRFSGSGSGTDFTLTISSLQPEDFATYYCQQWSFNPPTFGQGTKVEIKRTVAAPSVFIFPPSDEQLKSGTASVVCLLNNFYPREAKVQWKVDNALQSGNSQESVTEQDSKDSTYSLSSTLTLSKADYEKHKVYACEVTHQGLSSPVTKSFNRGEC
notes: IgG1; 2H7.v16 background

Kd (CD20 [1]): 1.09 nM
B2: 2H7.v75 (antibody, IgG1)
heavy: EVQLVESGGGLVQPGGSLRLSCAASGYTFTSYNMHWVRQAPGKGLEWVGAIYPGNGDTSYNQKFKGRFTISVDKSKNTLYLQMNSLRAEDTAVYYCARVVYYSASYWYFDVWGQGTLVTVSSASTKGPSVFPLAPSSKSTSGGTAALGCLVKDYFPEPVTVSWNSGALTSGVHTFPAVLQSSGLYSLSSVVTVPSSSLGTQTYICNVNHKPSNTKVDKKVEPKSCDKTHTCPPCPAPELLGGPSVFLFPPKPKDTLMISRTPEVTCVVVDVSHEDPEVKFNWYVDGVEVHNAKTKPREEQYNATYRVVSVLTVLHQDWLNGKEYKCKVSNKALPAPIAATISKAKGQPREPQVYTLPPSREEMTKNQVSLTCLVKGFYPSDIAVEWESNGQPENNYKTTPPVLDSDGSFFLYSKLTVDKSRWQQGNVFSCSVMHEALHNHYTQKSLSLSPGK
light: B1 light
notes: IgG1; 2H7.v16 background

Relative binding (CD20 [2]): 0.99 ratio (2H7.v16 conc./variant conc.)
B3: 2H7 version 166 (antibody, human IgG1, kappa, V domains shown)
VH: EVQLVESGGGLVQPGGSLRLSCAASGYTFTSYNMHWVRQAPGKGLEWVGAIYPGNGDTSYNQKFKGRFTISVDKSKNTLYLQMNSLRAEDTAVYYCARVVYYGGDWYFDVWGQGTLVTVSS
VL: DIQMTQSPSSLSASVGDRVTITCRASSSVSYMHWYQQKPGKAPKPLIYAPSNLASGVPSRFSGSGSGTDFTLTISSLQPEDFATYYCQQWSFNPPTFGQGTKVEIKR
notes: IgG1; 2H7.v16 background; Y100b is deleted (empty new residue)

Source: patent US20060024300A1 (published 2006)
